According to patent publication US20250368734A1 (ANTENGENE BIOLOGICS, published 2025):

T1: mouse GPRC5D (mouse, UniProt Q9JIL6 1-344)
T1 construct: whole, on cells; HEK293T-mGPRC5D cells; also called mGPRC5D; murine GPRC5D
T1 sequence (looked up): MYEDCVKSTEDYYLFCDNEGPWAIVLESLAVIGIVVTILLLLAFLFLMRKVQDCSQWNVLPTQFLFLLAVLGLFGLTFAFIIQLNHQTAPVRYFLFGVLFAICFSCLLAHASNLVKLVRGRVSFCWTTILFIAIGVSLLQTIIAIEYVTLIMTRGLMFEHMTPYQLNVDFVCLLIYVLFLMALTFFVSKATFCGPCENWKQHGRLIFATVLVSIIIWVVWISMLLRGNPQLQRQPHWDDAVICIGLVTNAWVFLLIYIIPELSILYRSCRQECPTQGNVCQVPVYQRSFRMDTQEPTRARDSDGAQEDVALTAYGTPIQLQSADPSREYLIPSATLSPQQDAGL


Tests used:
[1] = target: T2, human GPRC5D (human, UniProt Q9NZD1 1-345); assay: FACS, HEK293T-hGPRC5D cells
T2 construct: whole, on cells; also called hGPRC5D; G-protein coupled receptor family C group 5 member D
T2 sequence (Q9NZD1 whole entry): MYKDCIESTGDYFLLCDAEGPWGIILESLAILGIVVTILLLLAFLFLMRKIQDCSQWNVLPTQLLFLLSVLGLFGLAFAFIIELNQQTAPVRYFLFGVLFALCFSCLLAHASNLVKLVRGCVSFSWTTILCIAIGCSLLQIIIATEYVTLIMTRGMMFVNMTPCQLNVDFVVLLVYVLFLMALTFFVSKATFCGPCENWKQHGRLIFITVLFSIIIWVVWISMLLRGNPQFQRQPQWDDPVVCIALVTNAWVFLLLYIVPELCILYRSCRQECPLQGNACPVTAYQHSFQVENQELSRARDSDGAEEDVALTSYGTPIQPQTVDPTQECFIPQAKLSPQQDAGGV
Excerpt: (§1) The subcloning plates were screened by Mirrorball assay and the subclones with good binding ability were expanded to 24-wells for confirmation tests. The specificity and cross-reactivity of these subclones were confirmed with FACS analysis. Briefly, parental HEK293T, HEK293T cells stably over-expressing human GPRC5D protein (i.e., HEK293T-hGPRC5D), HEK293T cells stably over-expressing cynomolgus monkey GPRC5D protein (i.e., HEK293T-cynoGPRC5D), HEK293T cells stably over-expressing mouse GPRC5D protein (i.e., HEK293T-mGPRC5D), and OPM2 cells were incubated with antibodies produced by each subclone, respectively. Fluorescent dye-conjugated secondary antibody was used to detect the binding of the primary antibody with the cells. Median fluorescence intensity (MFI) was measured by FACS analysis,
(§2) As a result, 21 antibodies were discovered with unique sequences showing positive binding with HEK293T-hGPRC5D and OPM2 cells. Among which, some clones could also bind with HEK293T-cynoGPRC5D and/or HEK293T-mGPRC5D. […] ATG596 was a positive human IgG1 control antibody which comprises a VH region having an amino acid sequence as set forth in SEQ ID NO: 199, and a VL region having an amino acid sequence as set forth in SEQ ID NO: 200.

[2] = target: T1, mouse GPRC5D; assay: FACS, HEK293T-mGPRC5D cells
Excerpt: as §1, §2

[3] = target: T2, human GPRC5D; assay: FACS, OPM-2 cells
Excerpt: as §1, §2

[4] = target: T3, cynomolgus monkey GPRC5D (cynomolgus monkey); assay: FACS, HEK293T-cynoGPRC5D cells
T3 construct: whole, on cells; HEK293T-cynoGPRC5D cells; also called cynoGPRC5D
Excerpt: as §1, §2

[5] = target: T2, human GPRC5D; assay: cell-based or functional assay

% Positive [1] [%] | MFI [1] | % Positive [2] [%] | MFI [2] | % Positive [3] [%] | MFI [3] | % Positive [4] [%] | MFI [4] | EC50 [5] [nM] | Binder | Top killing % [5] [%]
88.6 | 7380 | 46.2 | 178 | 92.7 | 451 | 76.7 | 3960 |  | 87A3G8 (antibody, V domains shown, Mouse monoclonal antibody from hybridoma subclone) VH: QVQLKESGPGLVAPSQSLSITCTVSGFSLSSYSVYWVRQPPGKGLEWLGVIWAGGSTNYNSALMSRLSINKDKSKSQVFLKMNSLQTDDSAIYYCAMRWLPRGLDFWGQGTSVTVSS VL: DIVMTQSHKFMSTSVGDRVSITCKASQDVGTAVAWYQQKPGQSPKLLIYWASTRHTGVPDRFTGSGSGTDFTLTISNVQSEDLADYFCQQYSTYYTFGGGTKLEIK | 
 |  |  |  |  |  |  |  | 1.9 | Bis-83A9B8 (bispecific antibody) chain 1: EVQLQQSGPELVKPGASVKMSCKASGYTFSNYVIHWVKQKPGQGLEWIGYFNPYNDGSKYNEKFKGKATLTSDKSSSTAYMELSSLTSEDSAVYYCARGGVRRYFDVWGAGTTVTVSS chain 2: GGGGSGGGGSGGGGSEVQLVESGGGLVQPGRSLRLSCAASGFTFDNYAMHWVRQAPGKGLEWVSGISWNSGSIGYADSVKGRFTISRDNAKNSLYLQMNSLRAEDTALYYCAKDSRGYGDYSRGGAYWGQGTLVTVSSEIVMTQSPATLSVSPGERATLSCRASQSVSSNLAWYQQKPGQAPRLLIYGASTRATGIPARFSGSGSGTEFTLTISSLQSEDFAVYYCQQYNNWPWTFGQGTKVEIK chain 3: DIQMTQSPSSLSASLGERVSLTCRASQDIGDNLNWLQQEPDGTIKRLIYATFSLDSGVPKRFSGSRSGSVYSLTISRLESEDFVDYFCLHYASFPYTFGGGTKLEIK | 66.9
93.2 | 2070 | 89.4 | 566 | 98.7 | 962 | 95.3 | 2070 |  | 98A3A8 (antibody, V domains shown, Mouse monoclonal antibody from hybridoma subclone) VH: EVQLQQSGPELVKPGASVKMSCKASGYTFTYYVTHWVRQKPGQGLEWIGYINPYNDGTMFNEKFKGKATLTSDKSSSTAYMEFSSLTSEDSAVFYCARGGVRRYFDVWGAGTTVTVSS VL: DIQMTQSPSSLSASLGERVSLTCRASQDIGSNLNWLQQKPDGTIKRLIYATSSLDSGVPKRFSGSRSGSDYSLTINSLESEDFVDYYCLQYASFPYTFGGGTKLEIK | 
98.7 | 5250 | 78.9 | 772 | 98.2 | 894 | 96.7 | 2470 |  | 110B4H5 (antibody, V domains shown, Mouse monoclonal antibody from hybridoma subclone) VH: EVQLQQSGPELVKPGASVKMSCKASGYTFTFYIMHWVKQKPGQGPEWIGYINPYNDGTKYNAKFKGKATLSSDRSSSTAYMELSSLTSEDSAVYYCARGGVRRYFDVWGAGTPVTVSS VL: DIQMTQSPSSLSASLGERVSLTCRSSQDIGSNLNWLQQEPDGTIKRLIYATFSLDSGVPKRFSGSRSGSHYSLTISSLESEDFVVYYCLQYGSFPYTFGGGTKLEIK | 
58.8 | 680 | 49.2 | 202 | 99.9 | 1930 | 71.7 | 4020 |  | 96C9E7 (antibody, V domains shown, Mouse monoclonal antibody from hybridoma subclone) VH: EVQLQQSGPELVKPGASVKMSCKASGYTFTYYILHWVKQKPGQGLEWIGYFNPYNDGNKFNERFRGKATLTSDKSSSTAYMELNSLTSEDSAVYFCARGGVRRYFDVWGAGTTVTVSS VL: DIQMTQSPSSLSASLGERVSLTCRASQDIGSNLNWLQQEPDGTIKRLISATFSLDSGVPKRFSGSRSGSDYSLTISSLESEDFVNYYCLQYASFPYTFGGGTKLEIK | 
 |  |  |  |  |  |  |  | 6.69 | Bis-15D6G2 (bispecific antibody) chain 1: EVQLVESGGDLVKPGGYLRLSCAASGFTFSSHGMSWVRQTPDKRLEWVATISSGGRNTYYPDSVKGRFTISRDNAKNILYLQMSSLKSEDTAMFYCTRHSGDAMDYWGQGTSVTVSS chain 2: GGGGSGGGGSGGGGSEVQLVESGGGLVQPGRSLRLSCAASGFTFDNYAMHWVRQAPGKGLEWVSGISWNSGSIGYADSVKGRFTISRDNAKNSLYLQMNSLRAEDTALYYCAKDSRGYGDYSRGGAYWGQGTLVTVSSEIVMTQSPATLSVSPGERATLSCRASQSVSSNLAWYQQKPGQAPRLLIYGASTRATGIPARFSGSGSGTEFTLTISSLQSEDFAVYYCQQYNNWPWTFGQGTKVEIK chain 3: DILLTQSPAILSVSPGERVSFSCRASQSIGTNIHWYQQRTNGSPRLLIKYASESISGIPSRFSGSGSGTDFTLSINSVESEDIADYYCQQSKSWPTFGGGTKLEIK | 45.9
96.6 | 5010 | 65.7 | 274 | 98.3 | 878 | 59.1 | 355 |  | 108C4C12 (antibody, V domains shown, Mouse monoclonal antibody from hybridoma subclone) VH: EVQLQQSGPELVKPGASVKMSCKASGYTFTSYVIHWVKQKTGQGLEWIGYFNPYNDGTKYNEEFKGKATLTSDKSSNTAYMELNSLTSDDSAVYFCARGGVRRYFDVWGAGTTVTVSS VL: DIQMTQSPSSLSASLGERVSLTCRASQDIGSNLNWLQQEPDGTIKRLIYATFGLDSGVPKRFSGSRSGSDYSLTISSLESEDFVDYYCQQYASFPYTFGGGTKLEIK | 
99.4 | 8090 | 4.5 | 119 | 94.8 | 550 | 94.2 | 1070 |  | 82A1C10 (antibody, V domains shown, Mouse monoclonal antibody from hybridoma subclone) VH: QVQLKESGPGLVAPSQSLSITCTVSGFSLTNYAVTWVRQPPGKGLEWLGVIWGDGSTYYHSALVSRLSITKDNSRTQVLLKLNSLQTDDTARYYCAKGGYSPFAYWGQGTLVTVSA VL: DVVMTQTPLSLPVSLGDQASISCRSSQSLVHSNGNTYLHWYLQKPGQSPKLLIFKVSNRFSGVPDRFSGSGSGTDFTLKISRVEAEDLGVYFCSQNTHVPFTFGSGTKLEIK | 
97.9 | 27100 | 85.2 | 1480 | 99.6 | 1370 | 57.4 | 585 |  | 101B3G3 (antibody, V domains shown, Mouse monoclonal antibody from hybridoma subclone) VH: EVQLQQSGPELVKPGASMKISCKASGYSFTGYTMNWVKQSHGKNLEWIGLINPYNGGTRYNQKFKDKATLTVDKSSSTAYMELLSLTSEDSAVYYCARWLLRYAMDYWGQGTSVTVSS VL: DIVMTQSQKFMSTSVGDRVSITCKASQNVGNAVAWYQQKPGHSPKLLISSASNRKNGVPDRFTGSGSGTDFTLTVSNMQSEDLADYFCQQYSDSSWTFGGGTKLEIK | 
96.7 | 4940 | 87.4 | 2230 | 97.3 | 712 | 99.4 | 11400 |  | 90G6H3 (antibody, V domains shown, Mouse monoclonal antibody from hybridoma subclone) VH: QAYLQQSGAELVRSGASVKMSCKASGYTFTSYIMHWVKQTPGQGLEWIGYIYPGNGGTNYNQKFKDKATLSADTSSSTAYMQINSLTSEDSAVYFCARWGLRQGFAYWGQGTLVSVSA VL: DIVMTQSQKFMSTSVGDRVSVTCKASQNVGGNVAWYQQKPGQSPKALIYSTSYRNSGVPDRFTGSGSGTDFTLTISNVQSEDLAEYFCQQYNSYPFTFGSGTKLEIR | 
96.7 | 19200 | 74.6 | 1100 | 98.1 | 999 | 98.8 | 16500 |  | 89F11E3 (antibody, V domains shown, Mouse monoclonal antibody from hybridoma subclone) VH: QVQLQQSGAELARPGASVKMSCKASGYTFTSSTIHWVKQRPGQGLAWIGYIVPSTGYTNYNQKFKDKATLTADKSSSTAYMQLTSLTSEDSAVYYCARSDGYPFGYSMAYWGQGTSVTVSS VL: DIQMNQSPSSLSASLGDTITITCHASQNINVWLSWYHQKPGNIPKLLIYKASNLHTGVPSRFSGSGSGTGFTLTISRLQPEDIATYYCQQGQSYPFTFGSGTKLEIK | 
